Molecular target: Toll-like Receptor 5 (human) (UniProt O60602)
Test: cell-based or functional assay

B1: STF2.HA1 (SI) (protein)
chain: AQVINTNSLSLLTQNNLNKSQSALGTAIERLSSGLRINSAKDDAAGQAIANRFTANIKGLTQASRNANDGISIAQTTEGALNEINNNLQRVRELAVQSANSTNSQSDLDSIQAEITQRLNEIDRVSGQTQFNGVKVLAQDNTLTIQVGANDGETIDIDLKQINSQTLGLDSLNVQKAYDVKDTAVTTKAYANNGTTLDVSGLDDAAIKAATGGTNGTASVTGGAVKFDADNNKYFVTIGGFTGADAAKNGDYEVNVATDGTVTLAAGATKTTMPAGATTKTEVQELKDTPAVVSADAKNALIAGGVDATDANGAELVKMSYTDKNGKTIEGGYALKAGDKYYAADYDEATGAIKAKTTSYTAADGTTKTAANQLGGVDGKTEVVTIDGKTYNASKAAGHDFKAQPELAEAAAKTTENPLQKIDAALAQVDALRSDLGAVQNRFNSAITNLGNTVNNLSEARSRIEDSDYATEVSNMSRAQILQQAGTSVLAQANQVPQNVLSLLAKGIAPLQLGNCSVAGWILGNPECELLISRESWSYIVEKPNPENGTCYPGHFADYEELREQLSSVSSFERFEIFPKESSWPNHTTTGVSASCSHNGESSFYKNLLWLTGKNGLYPNLSKSYANNKEKEVLVLWGVHHPPNIGDQRALYHKENAYVSVVSSHYSRKFTPEIAKRPKVRDQEGRINYYWTLLEPGDTIIFEANGNLIAPRYAFALSRGFGSGIINS
IL-8, Mean Result (ng/nL), HEK 293 cells, lot 1 (reference), well 1: 635 ng/nL | IL-8, Mean Result (ng/nL), HEK 293 cells, lot 1 (reference), well 2: 797 | IL-8, Mean Result (ng/nL), HEK 293 cells, lot 1 (reference), well 3: 1070 | IL-8, Mean Result (ng/nL), HEK 293 cells, lot 1 (reference), well 4: 1230 | IL-8, Mean Result (ng/nL), HEK 293 cells, lot 1 (reference), well 5: 1360 | IL-8, Mean Result (ng/nL), HEK 293 cells, lot 1 (reference), well 6: 1540 | IL-8, Mean Result (ng/nL), HEK 293 cells, lot 2, well 1: 1460 ng/nL | IL-8, Mean Result (ng/nL), HEK 293 cells, lot 2, well 2: 1590 | IL-8, Mean Result (ng/nL), HEK 293 cells, lot 2, well 3: 1610 | IL-8, Mean Result (ng/nL), HEK 293 cells, lot 2, well 4: 1300 | IL-8, Mean Result (ng/nL), HEK 293 cells, lot 2, well 5: 1380 | IL-8, Mean Result (ng/nL), HEK 293 cells, lot 2, well 6: 1090 | IL-8, Mean of all wells, HEK 293 cells, lot 1 (reference): 1110 | IL-8, Mean of all wells, HEK 293 cells, lot 2: 1410 | T/C ratio (IL-8 of lot 2 against the reference lot 1 at about 278 ng/ml): 1.3

Reference: US20160193329A1
